Numbering of substitutions follows the chain as printed.
B1: <CCR5>Pz03.1C5 (antibody, V domains shown)
VH: QVQLKQSGPGLVRPSQSLSITCTVSGFPLGIFGVHWVRQSPGKGLEWLGVIWKGGNTDYNAAFMSRLRITKDNSKSQVFFRMNSLQTDDTAIYYCAKVNLADAMDYWGQGTSVIVSS
VL: DIQMTQSPASLSASVGETVTITCRASGNIHGYLAWFQQKQGKSPQLLVYNTKTLAEGVPSRFSGSGSGTQFSLKINSLQPEDFGNYYCQHHYDLPRTFGGGTKLEIKR
notes: also called Antibody C; m<CCR5>Pz03.1C5
B2: <CCR5>Pz02.1C11 (antibody, V domains shown)
VH: B1 VH with I31V, T70S
VL: B1 VL with A25S, T53A, S77N, N85I
notes: also called Antibody B

How the values were obtained:
[1] = molecular target: T1, human CCR5 (human, UniProt P51681 1-352); test: cell-based or functional assay
[2] = molecular target: T1, human CCR5; test: epitope mapping with alanine mutants of CCR5
[3] = molecular target: T1, human CCR5; test: cell-based or functional assay; remark: listed apart in the source
[4] = molecular target: T1, human CCR5; test: cell ELISA on CCR5-expressing cells, hybridoma screening

T1 sequence (P51681 whole entry): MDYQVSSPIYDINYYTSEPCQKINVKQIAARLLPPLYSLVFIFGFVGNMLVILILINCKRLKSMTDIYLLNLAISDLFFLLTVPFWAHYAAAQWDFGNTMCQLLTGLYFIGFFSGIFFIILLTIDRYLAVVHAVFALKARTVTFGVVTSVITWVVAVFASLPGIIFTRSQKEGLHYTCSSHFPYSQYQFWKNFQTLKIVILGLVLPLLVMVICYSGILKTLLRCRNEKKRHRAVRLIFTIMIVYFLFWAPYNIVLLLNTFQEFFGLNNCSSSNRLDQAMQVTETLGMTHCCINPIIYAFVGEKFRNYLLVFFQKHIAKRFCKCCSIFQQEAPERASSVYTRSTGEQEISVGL

Row | Binder | IC50, PhenoSenseHIV assay (ViroLogic) using JRCSF strain [1] [µg/ml] | IC50, cell-cell fusion assay (gp160-expressing HeLa cells with CEM.NKR-CCR5-Luc cells, luciferase) [1] [µg/mL] | binding result [2] | IC50, inhibition of HIV growth in human PBMC, JRCSF (p24 ELISA) [3] [µg/mL] | IC50, inhibition of HIV growth in human PBMC, Nl-Bal (p24 ELISA) [3] [µg/mL] | binding result [4]
1 | B1 | 0.16 | 0.38 | binds | 0.013 | 0.029 | 
2 | B2 | 0.17 | 0.79 |  | 0.025 | 0.025 | binds
